Paper PMC10799026, “Differences in regulation mechanisms of glutamine synthetases from methanogenic archaea unveiled by structural investigations” (Communications Biology, 2024)

Assays:
[1] = biological target: glutamine synthetase (GSI-α) from Methermicoccus shengliensis (Methermicoccus shengliensis); assay: crystal structure; sitting drop, 20 °C, anaerobic; apo and ligand-bound (2OG/Mg2+, 2OG/Mg2+/ATP, Mg2+/ATP) crystal forms
[2] = biological target: glutamine synthetase (GSI-α) from Methermicoccus shengliensis (Methermicoccus shengliensis); assay: native gel or EMSA; high-resolution clear native PAGE (hrCN PAGE), 5-12% gradient gels, 40 mA for 1 h, 2 µg purified GS; size from a fit to standard proteins
[3] = biological target: glutamine synthetase (GSI-α) from Methermicoccus shengliensis (Methermicoccus shengliensis); assay: SEC; Superose 6 Increase 10/300 GL, anaerobic, 20 °C, 25 mM Tris/HCl pH 7.6, 10% glycerol, 2 mM DTT, 0.4 ml/min; 76 µg MtGS, 67.5 µg MsGS; size from a fit to standard proteins
[4] = biological target: glutamine synthetase (GSI-α) from Methanothermococcus thermolithotrophicus (Methanothermococcus thermolithotrophicus); assay: crystal structure; sitting drop, 20 °C, anaerobic; apo and ligand-bound (2OG/Mg2+, 2OG/Mg2+/ATP, Mg2+/ATP) crystal forms
[5] = biological target: glutamine synthetase (GSI-α) from Methanothermococcus thermolithotrophicus (Methanothermococcus thermolithotrophicus); assay: native gel or EMSA; high-resolution clear native PAGE (hrCN PAGE), 5-12% gradient gels, 40 mA for 1 h, 2 µg purified GS; size from a fit to standard proteins
[6] = biological target: glutamine synthetase (GSI-α) from Methanothermococcus thermolithotrophicus (Methanothermococcus thermolithotrophicus); assay: SEC; Superose 6 Increase 10/300 GL, anaerobic, 20 °C, 25 mM Tris/HCl pH 7.6, 10% glycerol, 2 mM DTT, 0.4 ml/min; 76 µg MtGS, 67.5 µg MsGS; size from a fit to standard proteins
MsGS = biological target: T1, MsGS (Methermicoccus shengliensis, UniProt A0A832VZP6); assay: PK/LDH coupled assay, NADH oxidation at […] nm; type: biochemical; settings: read-out: % inhibition at 20 mM
T1 construct: gene glnA; native, purified anaerobically from M. shengliensis cells, no tag
T1 sequence (A0A832VZP6 1-442): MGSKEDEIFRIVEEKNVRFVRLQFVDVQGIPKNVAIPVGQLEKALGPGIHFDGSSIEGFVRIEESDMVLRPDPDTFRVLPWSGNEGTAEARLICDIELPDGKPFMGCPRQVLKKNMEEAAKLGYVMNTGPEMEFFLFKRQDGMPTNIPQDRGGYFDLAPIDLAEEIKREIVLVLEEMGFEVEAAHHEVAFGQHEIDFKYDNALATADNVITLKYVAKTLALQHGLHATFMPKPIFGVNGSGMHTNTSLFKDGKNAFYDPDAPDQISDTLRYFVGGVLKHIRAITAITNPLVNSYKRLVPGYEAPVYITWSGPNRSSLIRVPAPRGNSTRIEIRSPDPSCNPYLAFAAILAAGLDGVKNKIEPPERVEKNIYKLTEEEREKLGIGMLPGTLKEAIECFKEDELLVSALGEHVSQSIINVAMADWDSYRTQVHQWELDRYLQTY

purified protein [7] = substrate: N; assay: purified protein; settings: 3 mM ATP, 25 mM MgCl2, pH 7, 45 °C, Hill fit
purified protein [8] = substrate: N[C@@H](CCC(=O)O)C(=O)O; assay: purified protein; type: biochemical, Methermicoccus shengliensis; settings: 20 mM NH4Cl, 3 mM ATP, 25 mM MgCl2, pH 7, 45 °C, standard mix contains 2 mM 2OG (no effect on MsGS), Hill fit
purified protein [9] = substrate: N[C@@H](CCC(=O)O)C(=O)O; assay: purified protein; type: biochemical, Methanothermococcus thermolithotrophicus; settings: in presence of 2 mM 2OG (required activator), 20 mM NH4Cl, 3 mM ATP, 25 mM MgCl2, pH 7, 45 °C, Hill fit
[10] = 80 mM glutamate, standard mix contains 2 mM 2OG (no effect on MsGS)
[11] = in presence of 2 mM 2OG (required activator), 50 mM glutamate

Molecule: glutamine synthetase (GSI-α) from Methermicoccus shengliensis (enzyme)
- stoichiometry N [1]: 12
- stoichiometry N [2]: 12
- stoichiometry N [3]: 12

Molecule: glutamine synthetase (GSI-α) from Methanothermococcus thermolithotrophicus (enzyme)
- stoichiometry N [4]: 12
- stoichiometry N [5]: 12
- stoichiometry N [6]: 12

Molecule: NC(=O)CC[C@H](N)C(=O)O [glutamine]
- inhibition at 20000 µM (MsGS): 97%

B1: MsGS (Methermicoccus shengliensis) (protein)
chain: MGSKEDEIFRIVEEKNVRFVRLQFVDVQGIPKNVAIPVGQLEKALGPGIHFDGSSIEGFVRIEESDMVLRPDPDTFRVLPWSGNEGTAEARLICDIELPDGKPFMGCPRQVLKKNMEEAAKLGYVMNTGPEMEFFLFKRQDGMPTNIPQDRGGYFDLAPIDLAEEIKREIVLVLEEMGFEVEAAHHEVAFGQHEIDFKYDNALATADNVITLKYVAKTLALQHGLHATFMPKPIFGVNGSGMHTNTSLFKDGKNAFYDPDAPDQISDTLRYFVGGVLKHIRAITAITNPLVNSYKRLVPGYEAPVYITWSGPNRSSLIRVPAPRGNSTRIEIRSPDPSCNPYLAFAAILAAGLDGVKNKIEPPERVEKNIYKLTEEEREKLGIGMLPGTLKEAIECFKEDELLVSALGEHVSQSIINVAMADWDSYRTQVHQWELDRYLQTY
notes: native, purified anaerobically from M. shengliensis cells, no tag
- Km (purified protein [7]; [10]): 0.07 ± 0.01 mM
- Vmax (purified protein [7]; [10]): 0.98 µmol/min/mg
- Km (purified protein [8]): 32.57 ± 3.13 mM
- Vmax (purified protein [8]): 1.4 µmol/min/mg

B2: MtGS (Methanothermococcus thermolithotrophicus DSM 2095) (protein)
chain: MSTVEQVLEYVKSNNVKFMRFQFVDILGVPKNVAFPIKAGEKGIEELRDVLENGLYFDGSSIEGFVGINESDMMLKPDLSTFSVLPWRPSEKSVARVICDVYTTKGKPFEGDPRGCLKRVMEEFKKEFNGEYFVGPEPEFFLLKKDPHNPHKYIPADDGGYFDLEPMDEAPDIRRDIVFALENLGFHVEASHHEVAPGQHEVDFKFDDALKTADSVITFKTTIKTIAEQHGLKATFMPKPFFGMNGSGMHCHQSIWLNGEPSFYDENAPYQLSETCMNYVAGILKHAKAIVAITNPTVNSYKRLVPGYEAPVNIAWANSNRSAIIRVPAARGKGTRIEFRAPDPSCNPYLAFTVMLAAGLDGVKNKLDAPEPVERNIFAMSEAEKKELGIESVPANLKAALDELENNDVLKNALGKHIFESFLEIKNAEWDSFRTSVTDWETTAYLKI
notes: native, purified anaerobically from M. thermolithotrophicus cells, no tag
- Km (purified protein [7]; [11]): 0.14 ± 0.01 mM
- Vmax (purified protein [7]; [11]): 3.27 µmol/min/mg
- Km (purified protein [9]): 8.76 ± 0.87 mM
- Vmax (purified protein [9]): 3.42 µmol/min/mg
